Reference: paper PMC4938799, “LD Motif Recognition by Talin: Structure of the Talin-DLC1 Complex” (Structure(London, England:1993), 2016)

Target: T1, talin R8 domain
T1 construct: talin rod domain R8 (four-helix bundle), isolated domain used 15N-labelled for NMR; Construct limits, host and species are probably in the Supplemental Experimental Procedures; also called [15N]talin R8 domain
Experiment: NMR titration; KD fitted from 1H,15N-HSQC chemical-shift changes; 0.1 mM 15N talin R8, peptide/protein ratios 0.1 to 8; 298 K, 20 mM sodium phosphate pH 6.5, 50 mM NaCl
Settings: both partners purified

| Binder | Kd |
| --- | --- |
| ENEDIFPELDDILYHVKGMQRIVNQWSEK (Paper numbering is the 1091-residue isoform; +437 gives canonical numbering.) [DLC1(461–489) peptide] | 48 µM |
| MDDLDALLADLESTTS [paxillin LD1 peptide] | 168 µM |
